This passage reports binding result and fold lower 亲和力平衡常数 (KD) against H09 results from CN108948205A (BEIJING JINDAI BIOTECHNOLOGY CO LTD, dated 2018).

Experiment [1] addresses T1, IDH1野生型 (wild-type IDH1 in glioma tissue sections) (UniProt O75874 2-414).
T1 construct: Endogenous protein in patients' glioma paraffin sections; also called IDH1 R132H焦磷酸测序野生型样本; 不携带IDH1 R132H突变的胶质瘤样本
Nature of the experiment: immunohistochemistry on glioma paraffin sections.

Experiment [2] has as its target T2, IDH1 R132H (mutant IDH1 in glioma tissue sections) (UniProt O75874 2-414).
T2 construct: Endogenous protein in patients' glioma paraffin sections; also called IDH1突变; IDH1 R132H突变
Nature of the experiment: immunohistochemistry on glioma paraffin sections.

In experiment [3] the target is T3, IDH1 R132H突变抗原多肽 (编号 U6184CB080-D).
T3 sequence (peptide): KPIIIGHHAYGDQYC
The experiment in a line: SPR, Biacore 8k, peptide on CM5 chip; reference H09. Background: Surface plasmon resonance follows binding to a sensor surface in real time, without labels.

T1 sequence (O75874 2-414 limits assumed): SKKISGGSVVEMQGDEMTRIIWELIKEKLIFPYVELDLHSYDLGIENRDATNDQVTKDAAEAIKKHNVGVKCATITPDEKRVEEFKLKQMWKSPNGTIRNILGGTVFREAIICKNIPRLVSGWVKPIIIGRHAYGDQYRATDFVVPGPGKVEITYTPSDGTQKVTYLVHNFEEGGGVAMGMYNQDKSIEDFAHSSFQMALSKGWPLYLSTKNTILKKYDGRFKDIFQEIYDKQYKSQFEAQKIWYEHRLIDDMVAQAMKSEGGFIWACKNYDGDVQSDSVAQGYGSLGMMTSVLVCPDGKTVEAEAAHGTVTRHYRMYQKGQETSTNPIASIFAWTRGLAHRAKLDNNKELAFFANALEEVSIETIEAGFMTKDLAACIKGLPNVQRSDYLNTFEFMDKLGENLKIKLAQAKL
T2 sequence (O75874 2-414 R132H limits assumed): as the sequence (O75874 2-414 limits assumed) above, with R131H counted along it

B1: 10G5-1单克隆抗体 (anti-IDH1 R132H monoclonal antibody secreted by hybridoma 10G5-1, CGMCC No.15783) (antibody, V domains shown)
VH: QVQLQQPGTELVKPGASVHLSCKASGYTFTTYWMHWVKQRPGQGLEWIGDINPSNGETYYNEKFRNKATLTVDKSSRTAYMHLSSLSSEDSAVYYCARGFKDYWGQGTTLTVSS
VL: DVLMTQTPLSLPVSLGDQASISCRSSQTILYSDGVTYLEWYLQKPGQSPKLLIYKVSSRFSGVPDRFSGSGSGTDFTLKISRVVAEDLGIYYCFQGSHVPFTFGSGTKLEIK
notes: Mouse (BALB/c) hybridoma antibody purified on protein A; also called 10G5-1抗体; 1OG5-1抗体
As to B1, the binding result in experiment [1] is listed as “no binding”; in experiment [2], “binds”. Also, in experiment [3], the fold lower 亲和力平衡常数 (KD) against H09 is 10 fold.
